B1: Staphylococcus aureus ribosomal protein uL6 (natural protein, S. aureus NCTC 8325-4 (endogenous), UniProt Q2FW21 1-178, looked up)
chain: MSRVGKKIIDIPSDVTVTFDGNHVTVKGPKGELSRTLNERMTFKQEENTIEVVRPSDSKEDRTNHGTTRALLNNMVQGVSQGYVKVLELVGVGYRAQMQGKDLILNVGYSHPVEIKAEENITFSVEKNTVVKVEGISKEQVGALASNIRSVRPPEPYKGKGIRYQGEYVRRKEGKTGK
notes: Large-subunit ribosomal protein uL6 of S. aureus, encoded by rplF, as it stands in the native 70S ribosome; Present as a subunit of the 70S ribosome, not as an isolated protein; source: endogenous, in 70S ribosomes purified from S. aureus NCTC 8325-4 (sucrose cushions, zonal centrifugation)

Experiments:
[1] = target: Staphylococcus aureus 70S ribosome (S. aureus NCTC 8325-4 (endogenous)) (UniProt Q2FW21); assay: cryo-EM structure; FA-CP complex: as the FA complex but with 5 uM E. coli tRNAfMet and 400 uM FA-CP instead of FA; CHI state 2.0 Å, POST state 2.4 Å
[2] = target: Staphylococcus aureus 70S ribosome (S. aureus NCTC 8325-4 (endogenous)) (UniProt Q2FW21); assay: cryo-EM structure; FA complex: 0.5 uM S. aureus 70S, 2 uM mRNA Z4AUGGCA, 2 uM E. coli tRNAfMet, 5 uM S. aureus EF-G, 400 uM FA, 1 mM GTP in HEPES polymix buffer (20 mM HEPES pH 7.5, 5 mM BME), 10 min steps at 37 °C; 1 ul of 25 uM FusB with 400 uM FA mixed into the drop on the grid; CHI state 2.5 Å (modelled), POST state 3.1 Å (not modelled)
[3] = target: T1, Staphylococcus aureus elongation factor G (Staphylococcus aureus, UniProt P68790 1-693); assay: as above; conditions: both partners purified
T1 construct: Ser-Leu that remains at the N-terminus after TEV cleavage of the 6xHis tag and linker; In the complexes EF-G carries GDP, magnesium and FA or FA-CP; also called EF-G; S. aureus EF-G; source: E. coli BL21 (DE3), purified (Ni Sepharose, TEV cleavage, reverse IMAC, Superdex-200 gel filtration); not shown: 6xHis, N-terminal, cleaved

Molecule	percent of 70S particles that contain EF-G [1] [%]	percent of ribosomes bound to EF-G [2] [%]	binding result [3]
Staphylococcus aureus elongation factor G (from UniProt P68790 1-693) (natural protein)	72	60	
B1			binds
